Reference: patent publication US20220226454A1 (KEYSTONE BIO, published 2022)

Legend:
[1] = biological target: T1, recombinant GST-gingipain rGP-1 fusion protein; assay: ELISA, wells coated with rGP-1 and probed with varying concentrations of KB001
T1 construct: also called GST-Gp; GST-Gingipain recombinant protein

[2] = biological target: whole bacterial cells of P. gingivalis (Porphyromonas gingivalis)

B1: KB-001 mouse monoclonal antibody (antibody, V domains shown)
VH: EVQLKQSGPGLVAPSQSLSITCTVSGFSLSIYSVHWVRQPPGKGLEWLGMIWGGGSSDYNSALKSRLSISKDNSKSQVFLKMNSLQTDDTAMYYCARNGNFYAMDYWGQGTSVTVSS
VL: QIVLTQSPAIMSASLGERVTMTCTASSSVSSSFLHWYQQKPGSSPQLWIYSTSNLASGVPARFSGSGSGTSYSLTISSMEAEDAATYYCHQYHHSPYIYTFGGGTKLEIKR
notes: also called Pg/gingipain antibody
Q: Which results are given for B1?
A: binding result [1]: binds; Kd [2]: 11.4 nM
